For the assay, the target named is SARS-CoV-2 spike (S) glycoprotein on live SARS-CoV-2 virus (SARS-CoV-2) (UniProt P0DTC2). The assay is described as follows: cell-based or functional assay.

Neg control yielded an in vitro virus neutralization EC50 greater than 10 µg/mL.

(Values after patent publication US20220002699A1.)
